Test results reported in US20070293451A1 (UNIVERSITY OF PITTSBURGH, published 2007).
Ends that are not written are not given here. * marks the point of attachment. 6FAM = O=C1OC2(c3ccc(O)cc3Oc3cc(O)ccc32)c2cc(C(=O)*)ccc21; Ahx = NCCCCCC(=O)O

Experiments:
[1] = molecular target: T1, full length Sse1p (yeast Hsp110) (Saccharomyces cerevisiae (yeast), UniProt P32589 2-693); assay: fluorescence anisotropy
T1 construct: Purified as in Goeckeler et al., 2002; also called Sselp
T1 sequence: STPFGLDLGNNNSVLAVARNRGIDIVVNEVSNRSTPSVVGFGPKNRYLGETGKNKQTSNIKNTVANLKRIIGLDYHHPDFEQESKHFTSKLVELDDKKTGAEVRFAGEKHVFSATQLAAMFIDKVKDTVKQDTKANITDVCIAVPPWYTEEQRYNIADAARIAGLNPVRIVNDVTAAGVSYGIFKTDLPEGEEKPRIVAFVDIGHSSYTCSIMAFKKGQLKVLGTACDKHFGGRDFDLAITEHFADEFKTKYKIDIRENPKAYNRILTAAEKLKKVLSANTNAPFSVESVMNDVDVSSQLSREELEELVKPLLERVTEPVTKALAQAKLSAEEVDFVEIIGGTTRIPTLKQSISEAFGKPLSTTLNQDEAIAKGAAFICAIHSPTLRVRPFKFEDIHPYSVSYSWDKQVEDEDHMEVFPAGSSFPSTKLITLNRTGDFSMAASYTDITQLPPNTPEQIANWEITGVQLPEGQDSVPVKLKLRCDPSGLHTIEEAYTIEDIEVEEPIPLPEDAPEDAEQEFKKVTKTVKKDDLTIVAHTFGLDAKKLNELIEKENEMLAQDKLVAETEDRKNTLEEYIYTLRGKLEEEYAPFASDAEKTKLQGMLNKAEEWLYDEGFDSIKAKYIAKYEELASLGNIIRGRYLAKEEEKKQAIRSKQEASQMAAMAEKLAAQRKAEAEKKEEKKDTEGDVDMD
Protocol: (§1) In this assay, full length Sse1p and the peptide binding domain of Sse1p were bound to a 6-carboxyfluorescein-aminohexanoic acid-N-terminal-linked-polypeptide having the sequence N-[…]-C (SEQ ID NO: 1), which was derived from firefly luciferase. Binding was assessed by fluorescence anisotropy. […] Unlabeled peptide competes for binding (data not shown).

[2] = molecular target: T2, peptide binding domain of Sse1p (Saccharomyces cerevisiae (yeast), UniProt P32589 375-693, limits assumed); assay: fluorescence anisotropy; reference is full-length Sse1p
T2 sequence: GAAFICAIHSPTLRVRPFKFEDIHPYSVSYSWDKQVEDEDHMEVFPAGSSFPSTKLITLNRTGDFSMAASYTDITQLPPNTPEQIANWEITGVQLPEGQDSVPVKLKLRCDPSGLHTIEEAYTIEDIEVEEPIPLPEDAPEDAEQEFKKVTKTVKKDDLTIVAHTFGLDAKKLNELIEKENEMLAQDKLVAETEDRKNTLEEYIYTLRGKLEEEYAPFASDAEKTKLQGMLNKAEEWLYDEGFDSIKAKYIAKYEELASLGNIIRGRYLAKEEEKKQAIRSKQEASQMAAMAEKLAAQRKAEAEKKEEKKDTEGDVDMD
Protocol: as §1

[3] = molecular target: T1, full length Sse1p (yeast Hsp110); assay: fluorescence anisotropy competition against the labeled peptide

B1: 6-carboxyfluorescein-aminohexanoic acid-N-terminal-linked polypeptide LICGFRVVLMYRF (derived from firefly luciferase) (peptide)
peptide: {6FAM-Ahx}-LICGFRVVLMYRF
notes: also called fluorescently labeled peptide
Q: How did the Kd [1] turn out when B1 was run?
A: 2 to 3 nM

Q: What about the “fold lower affinity than full-length Sse1p” value [2] of the same binder?
A: ~100 fold

Q: Does LICGFRVVLMYRF [unlabeled peptide LICGFRVVLMYRF] bind [3]?
A: binds
